Patent US20180325981A1 (published 2018)
One block for each binder: values may come before it. Square brackets hold non-standard residues; d marks the D form. Nva = CCC[C@H](N)C(=O)O

Experiments:
[1] = biological target: T1, purified recombinant ADIPOR1 (A88) (UniProt Q96A54 89-375); experiment: SPR; recombinant ADIPOR1 amine-coupled to a CM5 chip, peptide injected
T1 construct: range 89-375; Expressed in SF9 cells by baculovirus, solubilised in DDM, purified on anti-Flag beads (eluted with Flag peptide) and by size exclusion as monomer; amine-coupled to a CM5 chip; also called adiponectin receptor 1; adiponectin receptor ADIPOR1; not shown: Flag tag at the N-terminus
T1 sequence: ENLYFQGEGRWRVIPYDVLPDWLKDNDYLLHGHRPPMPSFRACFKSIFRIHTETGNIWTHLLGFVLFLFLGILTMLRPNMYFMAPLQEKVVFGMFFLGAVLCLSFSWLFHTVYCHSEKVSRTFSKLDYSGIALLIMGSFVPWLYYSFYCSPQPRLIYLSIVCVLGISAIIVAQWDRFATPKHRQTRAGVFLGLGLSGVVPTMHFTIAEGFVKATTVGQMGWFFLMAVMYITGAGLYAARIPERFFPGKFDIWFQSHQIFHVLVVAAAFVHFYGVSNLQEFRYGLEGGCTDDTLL
Procedure: (§1) In order to analyze the binding force between peptide and ADIPOR1, a purified recombinant ADIPOR1 (A88) was bound to a CM5 chip with 3000 RU or higher through amine coupling. Peptide was diluted with a running buffer (0.1% DDM, 0.005% CHS, 10 mM HEPES, 150 mM NaCl with pH 7.4) and injected into a SPR instrument at various concentrations to analyze the binding force. The affinity value was calculated using the affinity fitting or kinetics fitting method. In order to analyze peptide solubility, peptide stocks were prepared with DMSO, diluted in an appropriate buffer, and then undissolved precipitates were removed. The peptide concentrations were calculated by measuring the […] and A280 absorbance of each peptide.

[2] = biological target: T1, purified recombinant ADIPOR1 (A88); experiment: SPR, ADIPOR1 amine-coupled to CM5 chip, peptide injected
Procedure: as §1
With reference to FIGS. 3 and 4, surface plasmon resonance (SPR) experiments were performed in the present invention to measure the dissociation constant between the agonist peptide and the adiponectin receptor, particularly adiponectin receptor 1 (ADIPOR1). First, an expressed and purified adiponectin receptor ADIPOR1 was immobilized and its dissociation constant from candidate peptides was measured over a total of 4 rounds.

[3] = biological target: purified recombinant ADIPOR1 (A88) (UniProt Q96A54); experiment: SPR, immobilised ADIPOR1

Kd [2]: 2 to 4.3 µM
B3: peptide 4-4 (peptide)
peptide: FYFAYHPNIPGLFYF
notes: Synthetic 4th round agonist peptide

Kd [3]: > 100 µM
B5: reference peptide ADP355 (peptide)
peptide: H-[dN]IP[Nva]LY[dS]FA[dS]-NH2
SMILES: CCC[C@H](NC(=O)[C@@H]1CCCN1C(=O)[C@@H](NC(=O)[C@H](N)CC(N)=O)[C@@H](C)CC)C(=O)N[C@@H](CC(C)C)C(=O)N[C@@H](Cc1ccc(O)cc1)C(=O)N[C@H](CO)C(=O)N[C@@H](Cc1ccccc1)C(=O)N[C@@H](C)C(=O)N[C@H](CO)C(N)=O

The remaining lines, values behind:

B1: 3-3 (peptide)
peptide: NIPGLWYFAY
notes: 3rd round synthetic peptide; also called peptide 3-3
Kd [1]: 30.7 µM

B2: 3-4 (peptide)
peptide: NIPGLFYFAY
notes: 3rd round synthetic peptide; also called peptide 3-4
Kd [1]: 23.2 µM

B4: peptide 3-1 (peptide)
peptide: YYFAYHPNIPGLYYF
notes: Synthetic 3rd round agonist peptide designed for the adiponectin receptor
Kd [2]: ≤ 16 µM

B6: peptide 4-3 (peptide)
peptide: WYFAYHPNIPGLWYF
notes: as for B3
Kd [2]: 6 to 10 µM
